From paper PMC11782487, “Cryo-EM structures reveal the H^+/citrate symport mechanism of Drosophila INDY” (Life Science Alliance, 2025)

Biological target: the molecule itself
Test: cryo-EM structure; purified INDY in MSP1 nanodiscs (E. coli polar lipids); apo at pH 6 and pH 8, with 5 mM citrate, or with 150 uM DIDS; homodimer in all seven structures

B1: Drosophila I'm Not Dead Yet (INDY) (natural protein)
chain: not shown
notes: I'm Not Dead Yet (INDY), Drosophila melanogaster, full-length gene, GenBank AF509505.1; 590 amino acids; Eluted from the anti-GFP resin by overnight thrombin cleavage; residues of the thrombin site may be left at the C-terminus; Regions of poor density were modelled as polyalanine in the deposited structures; also called WT INDY; apo INDY; not shown: eGFP, C-terminal, cleaved; His10, C-terminal, …
stoichiometry N: 2
